Literature values in publication PMC10680782.

Biological target: VE-cadherin (Homo sapiens) (UniProt P33151)
Sequence of UniProt P33151 (P33151 48-599): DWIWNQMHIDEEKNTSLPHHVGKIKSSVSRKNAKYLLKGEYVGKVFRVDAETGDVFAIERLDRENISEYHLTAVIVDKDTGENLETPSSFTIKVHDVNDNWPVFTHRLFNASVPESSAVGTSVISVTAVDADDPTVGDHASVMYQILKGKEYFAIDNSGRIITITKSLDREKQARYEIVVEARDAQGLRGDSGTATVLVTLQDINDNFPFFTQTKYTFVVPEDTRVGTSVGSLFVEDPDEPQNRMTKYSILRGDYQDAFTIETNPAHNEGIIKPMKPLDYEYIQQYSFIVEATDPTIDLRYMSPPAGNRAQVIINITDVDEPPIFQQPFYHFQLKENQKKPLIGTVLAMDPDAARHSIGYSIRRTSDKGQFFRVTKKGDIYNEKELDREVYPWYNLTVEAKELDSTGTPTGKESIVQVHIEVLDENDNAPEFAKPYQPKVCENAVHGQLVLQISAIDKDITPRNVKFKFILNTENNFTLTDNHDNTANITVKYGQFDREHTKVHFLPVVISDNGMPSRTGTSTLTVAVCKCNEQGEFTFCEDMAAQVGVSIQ

Kd: 267 µM
Substance: fibrin β15-42 fragment 15-42 (from UniProt P02675)
